Test results reported in IntAct's records for PubMed 16830178.

B1: Protein GRIP (Arabidopsis thaliana (Mouse-ear cress)), Q8S2T0 (parent)
chain: MSEDKESDVVGEEEESHVIKEDKELNDASNETLTENGDQLLQMIAELRLENDFLRSQFEGLKDEVAQGRSLQKAEQVEADSAQLKQLQEQVASLSREIDVEKQTRVAAEQALEHLREAYSEADAKSQEYSSKFSQVEQKLDQEIKERDEKYADLDAKFTRLHKRAKQRIQEIQKEKDDLDARFREVNETAERASSQHSSMQQELERTRQQANEALKAMDAERQQLRSANNKLRDTIEELRGSLQPKENKIETLQQSLLDKDQILEDLKKQLQAVEERKQIAVTELSAKHQKNLEGLEAQVVDALSERDKAAETISSLQVLLAEKESKIAEMEAAATGEAARLRAAAETLKGELAHLKSENEKEKETWEASCDALKSKLEIAESNYLQAEIEVAKMRSQLGSEMSMQTQILSTKDAELKGAREEINRLQSEFSSYKIRAHALLQKKDMELAAAKDSEQIKSLEEALKEAEKEVYLVSAERDRAQQDLQSALASLEKELEERAGALKDASEQIKSLEVKLDSTVARNQAEKQAWEEDLRVLEETWRRRCEALTAQNEASPAEGIEKELENAKLRNKRMKEEHESVRELADRLIEEKDREISRLVDEMTNLRKSMESKPVWNKSPSQVHHYGNNNTESQQQDVSNLSTSAAEHQILILARQQAQREEELAQTQRHILALQEEIEELERENRLHSQQEAVLKTELREMERKQKREGVDMTYLKNVILKLLETGEVEALLPVVGMLLQFSPEEIQKCQQAYHSSTTAATTTEATPSPASEGSGLSVFSRFSFS
partner: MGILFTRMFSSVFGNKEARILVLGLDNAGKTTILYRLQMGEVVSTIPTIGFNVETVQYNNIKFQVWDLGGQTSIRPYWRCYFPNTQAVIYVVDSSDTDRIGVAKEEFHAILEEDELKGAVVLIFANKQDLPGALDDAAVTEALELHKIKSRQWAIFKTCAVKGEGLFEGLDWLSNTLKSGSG
B2: ADP-ribosylation factor 3 (Arabidopsis thaliana (Mouse-ear cress)), P40940 (parent)
chain: B1 partner
partner: B1 chain

Variants of: B1
Conditions: with arf3_arath ARF3, P40940

Variant	effect of a mutation on the interaction
Y717A	decreasing interaction
K719A	decreasing interaction

Variants of: B2
Conditions: with grip_arath GRIP, Q8S2T0

Variant	effect of a mutation on the interaction
Y81G	decreasing interaction
F51G	decreasing interaction

Variants of: B2
Conditions: with grip_arath GRIP

Variant	effect of a mutation on the interaction
Y81G	disrupting interaction
F51G	disrupting interaction
